In US20040019187A1 (published 2004):

T1: HLA-DR (DRA*0101/DRB1*0401) on the surface of PRIESS cells (human, UniProt P01903 26-254; P01911 30-266)
T1 MHC II alpha: not shown
T1 MHC II beta: not shown


Legend:
[1] = biological target: HLA-DR on the surface of LG-2 cells (human B-lymphoblastoid cell line) (human); assay: cell-based or functional assay
[2] = biological target: T1, HLA-DR (DRA*0101/DRB1*0401) on the …; assay: cell-based or functional assay

Row | Binder | EC50 of cell killing (nM) for bivalent agent; LG2 cells; Fab cross-linked with anti-FLAG M2 [1] | EC50 of cell killing (nM) for bivalent agent; PRIESS cells; Fab cross-linked with anti-FLAG M2 [2]
1 | MS-GPC-8-27-41 Fab (Fab, V domains shown) VH: QVQLKESGPALVKPTQTLTLTCTFSGFSLSTSGVGVGWIRQPPGKALEWLALIDWDDDKYYSTSLKTRLTISKDTSKNQVVLTMTNMDPVDTATYYCARSPRYRGAFDYWGQGTLVTVSS VL: DIVLTQPPSVSGAPGQRVTISCSGSESNIGNNYVQWYQQLPGTAPKLLIYDNNQRPSGVPDRFSGSKSGTSASLAITGLQSEDEADYYCQSYDMNVHVFGGGTKLTVLG | 7.2 nM | 7.7 nM
2 | MS-GPC-8-6-2 Fab (Fab, V domains shown) VH: QVQLKESGPALVKPTQTLTLTCTFSGFSLSTSGVGVGWIRQPPGKALEWLALIDWDDDKYYSTSLKTRLTISKDTSKNQVVLTMTNMDPVDTATYYCARSPRYRGAFDYWGQGTLVTVSS VL: DIVLTQPPSVSGAPGQRVTISCSGSESNIGSNYVHWYQQLPGTAPKLLIYDNNQRPSGVPDRFSGSKSGTSASLAITGLQSEDEADYYCQSYDYDHYVFGGGTKLTVLG |  | 8 nM
3 | MS-GPC-8-17 Fab (Fab, V domains shown) VH: QVQLKESGPALVKPTQTLTLTCTFSGFSLSTSGVGVGWIRQPPGKALEWLALIDWDDDKYYSTSLKTRLTISKDTSKNQVVLTMTNMDPVDTATYYCARSPRYRGAFDYWGQGTLVTVSS VL: DIVLTQPPSVSGAPGQRVTISCSGSSSNIGSNYVSWYQQLPGTAPKLLIYDNNQRPSGVPDRFSGSKSGTSASLAITGLQSEDEADYYCQSYDFSVYVFGGGTKLTVLG |  | 16 nM
